Columns and labels:
Assay in all cases: cell_activity; human T cells, 1 ug mRNA, day 3
Conditions in all cases: tags: N-terminal SV40 NLS
B2M 13-14x.93 EQ = biological target: T1, B2M 13-14x.93 EQ (Artificial Sequence)
T1 chain: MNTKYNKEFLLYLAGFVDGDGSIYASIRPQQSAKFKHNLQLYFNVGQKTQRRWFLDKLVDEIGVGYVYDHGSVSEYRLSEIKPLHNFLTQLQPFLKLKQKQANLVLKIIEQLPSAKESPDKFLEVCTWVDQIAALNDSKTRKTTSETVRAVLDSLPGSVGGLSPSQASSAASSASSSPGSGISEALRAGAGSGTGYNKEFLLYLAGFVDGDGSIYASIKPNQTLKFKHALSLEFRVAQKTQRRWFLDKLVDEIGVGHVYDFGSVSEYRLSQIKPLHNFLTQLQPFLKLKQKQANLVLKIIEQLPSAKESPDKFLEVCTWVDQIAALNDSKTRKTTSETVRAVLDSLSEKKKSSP
Protocol: (§1) To test these variants of B2M 13-14x.93, donor human T cells were stimulated with anti-CD3 and anti-CD28 antibodies for 3 days, then electroporated with mRNA encoding a given B2M 13-14 meganuclease (1 μg) using the Amaxa 4D-Nucleofector (Lonza) according to the manufacturer's instructions. At 3 days post-electroporation, cells were stained with an antibody recognizing β-2 microglobulin (BD Biosciences) and analyzed by flow cytometry.

B2M 13-14x.93 EQK66 = biological target: T2, B2M 13-14x.93 EQK66 (Artificial Sequence)
T2 chain: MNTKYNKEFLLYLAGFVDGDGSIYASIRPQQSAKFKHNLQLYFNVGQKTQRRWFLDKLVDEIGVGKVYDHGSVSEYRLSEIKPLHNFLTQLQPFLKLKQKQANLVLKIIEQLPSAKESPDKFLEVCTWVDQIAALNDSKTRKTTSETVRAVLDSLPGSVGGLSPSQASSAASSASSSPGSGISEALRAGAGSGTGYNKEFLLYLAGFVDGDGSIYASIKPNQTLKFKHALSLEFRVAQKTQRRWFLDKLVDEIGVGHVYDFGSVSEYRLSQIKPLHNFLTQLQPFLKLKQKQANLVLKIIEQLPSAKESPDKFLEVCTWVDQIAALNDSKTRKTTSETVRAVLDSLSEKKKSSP
Protocol: as §1

B2M 13-14x.93 EE = biological target: T3, B2M 13-14x.93 EE (Artificial Sequence)
T3 chain: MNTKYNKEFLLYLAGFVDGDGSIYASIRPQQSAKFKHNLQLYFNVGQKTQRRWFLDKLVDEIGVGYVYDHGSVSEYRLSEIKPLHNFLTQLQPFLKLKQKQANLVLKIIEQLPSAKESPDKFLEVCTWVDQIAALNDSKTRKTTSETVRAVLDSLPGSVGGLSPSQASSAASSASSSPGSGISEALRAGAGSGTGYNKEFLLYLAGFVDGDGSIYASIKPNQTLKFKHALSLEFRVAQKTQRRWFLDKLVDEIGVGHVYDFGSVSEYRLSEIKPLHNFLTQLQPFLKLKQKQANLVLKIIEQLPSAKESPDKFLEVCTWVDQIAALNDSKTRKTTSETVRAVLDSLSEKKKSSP
Protocol: as §1

B2M 13-14x.93 QQR66 = biological target: T4, B2M 13-14x.93 QQR66 (Artificial Sequence)
T4 chain: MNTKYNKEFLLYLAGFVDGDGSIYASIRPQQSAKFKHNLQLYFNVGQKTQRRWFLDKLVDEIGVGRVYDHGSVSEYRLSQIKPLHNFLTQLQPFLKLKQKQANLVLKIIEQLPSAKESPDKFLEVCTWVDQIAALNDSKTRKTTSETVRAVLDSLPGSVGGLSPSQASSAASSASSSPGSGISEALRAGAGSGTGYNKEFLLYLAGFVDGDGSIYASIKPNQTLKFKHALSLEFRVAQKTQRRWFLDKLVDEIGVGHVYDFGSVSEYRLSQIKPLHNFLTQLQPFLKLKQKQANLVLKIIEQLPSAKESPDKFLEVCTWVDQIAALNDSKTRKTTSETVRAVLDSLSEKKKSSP
Protocol: as §1

B2M 13-14x.93 EQY66 = biological target: T5, B2M 13-14x.93 EQY66 (Artificial Sequence)
T5 chain: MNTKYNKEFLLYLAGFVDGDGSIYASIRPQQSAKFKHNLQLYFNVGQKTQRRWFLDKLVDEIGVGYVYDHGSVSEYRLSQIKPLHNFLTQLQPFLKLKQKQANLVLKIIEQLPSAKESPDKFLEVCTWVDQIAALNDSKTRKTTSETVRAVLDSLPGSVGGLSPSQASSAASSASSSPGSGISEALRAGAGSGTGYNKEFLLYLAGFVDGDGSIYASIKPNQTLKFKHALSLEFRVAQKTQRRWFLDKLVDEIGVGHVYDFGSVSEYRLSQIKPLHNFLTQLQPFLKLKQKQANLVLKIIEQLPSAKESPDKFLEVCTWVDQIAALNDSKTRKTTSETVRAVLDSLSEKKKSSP
Protocol: as §1

B2M 13-14x.93 EEK66 = biological target: T6, B2M 13-14x.93 EEK66 (Artificial Sequence)
T6 chain: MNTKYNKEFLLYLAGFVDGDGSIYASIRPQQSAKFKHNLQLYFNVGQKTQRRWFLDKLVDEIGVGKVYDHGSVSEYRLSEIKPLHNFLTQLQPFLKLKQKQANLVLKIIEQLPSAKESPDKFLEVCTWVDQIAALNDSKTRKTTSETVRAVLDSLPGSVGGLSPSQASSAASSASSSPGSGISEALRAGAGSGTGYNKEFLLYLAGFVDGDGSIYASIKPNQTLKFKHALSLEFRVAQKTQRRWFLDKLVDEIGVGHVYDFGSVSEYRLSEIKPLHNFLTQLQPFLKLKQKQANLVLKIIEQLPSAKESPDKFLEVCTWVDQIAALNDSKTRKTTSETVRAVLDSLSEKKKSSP
Protocol: as §1

B2M 13-14x.93 QQY66 = biological target: T7, B2M 13-14x.93 QQY66 (Artificial Sequence)
T7 chain: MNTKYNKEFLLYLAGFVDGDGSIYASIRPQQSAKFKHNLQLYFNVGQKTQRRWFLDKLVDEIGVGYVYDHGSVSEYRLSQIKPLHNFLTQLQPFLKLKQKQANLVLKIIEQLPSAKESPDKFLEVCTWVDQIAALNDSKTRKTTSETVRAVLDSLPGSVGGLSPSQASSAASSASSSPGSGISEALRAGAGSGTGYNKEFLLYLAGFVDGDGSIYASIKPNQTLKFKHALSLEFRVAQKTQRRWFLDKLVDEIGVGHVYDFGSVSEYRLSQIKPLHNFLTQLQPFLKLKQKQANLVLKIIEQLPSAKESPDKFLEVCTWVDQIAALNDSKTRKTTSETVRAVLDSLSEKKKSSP
Protocol: as §1

B2M 13-14x.93 EEY66 = biological target: T8, B2M 13-14x.93 EEY66 (Artificial Sequence)
T8 chain: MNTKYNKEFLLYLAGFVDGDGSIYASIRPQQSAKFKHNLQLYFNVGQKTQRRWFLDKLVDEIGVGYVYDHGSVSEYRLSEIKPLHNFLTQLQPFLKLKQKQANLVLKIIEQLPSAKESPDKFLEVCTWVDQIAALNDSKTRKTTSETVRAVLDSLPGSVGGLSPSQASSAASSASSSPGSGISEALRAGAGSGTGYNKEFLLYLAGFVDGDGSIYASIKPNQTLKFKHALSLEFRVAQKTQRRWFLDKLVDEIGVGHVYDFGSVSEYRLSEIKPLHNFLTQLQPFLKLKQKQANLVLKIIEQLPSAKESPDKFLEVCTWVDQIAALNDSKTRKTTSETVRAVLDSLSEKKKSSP
Protocol: as §1

B1: B2M 13-14 recognition sequence (dsDNA)
DNA 1: CTATCTCTTGTACTACACTGAA
DNA 2: TTCAGTGTAGTACAAGAGATAG
Question: Which activity (B2M 13-14x.93 EQ) does the source give for B1 here?
Answer: Its activity is 5.13 % B2M-negative.

Question: And the activity (B2M 13-14x.93 EQK66)?
Answer: Its activity is 6.81 % B2M-negative.

Question: And the activity (B2M 13-14x.93 EE)?
Answer: Its activity is 18.3 % B2M-negative.

Question: What about the activity (B2M 13-14x.93 QQR66) of the same binder?
Answer: Its activity is 5.05 % B2M-negative.

Question: What about the activity (B2M 13-14x.93 EQY66) of the same binder?
Answer: The activity was 21.4 % B2M-negative.

Question: What about the activity (B2M 13-14x.93 EEK66) of the same binder?
Answer: The activity was 3.84 % B2M-negative.

Question: What about the activity (B2M 13-14x.93 QQY66) of the same binder?
Answer: The activity was 19.2 % B2M-negative.

Question: And the activity (B2M 13-14x.93 EEY66)?
Answer: The activity was 1.58 % B2M-negative.
